{"source": "paper PMC10723402", "key": {"Gsx2HD": {"molecular_target": "Gsx2HD (Mus musculus, UniProt P31316 203-264)", "sequence (P31316 203-264)": "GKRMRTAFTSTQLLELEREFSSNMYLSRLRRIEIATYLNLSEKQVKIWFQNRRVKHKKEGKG", "test": "ITC"}, "Gsx2 167-305 [1]": {"molecular_target": "T1, Gsx2 167-305 (Mus musculus, UniProt P31316 167-305)", "T1 sequence (P31316 167-305)": "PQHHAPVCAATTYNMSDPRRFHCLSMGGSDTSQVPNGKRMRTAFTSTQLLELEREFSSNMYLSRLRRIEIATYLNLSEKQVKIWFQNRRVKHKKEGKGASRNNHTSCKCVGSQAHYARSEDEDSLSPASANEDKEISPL", "test": "ITC"}, "Gsx2HD L216E [2]": {"molecular_target": "T2, Gsx2HD L216E (Mus musculus, UniProt P31316 203-264, L216E)", "T2 sequence (P31316 203-264 L216E)": "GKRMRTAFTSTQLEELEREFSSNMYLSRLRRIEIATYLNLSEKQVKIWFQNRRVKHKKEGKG", "test": "EMSA"}, "Gsx2HD L231E [3]": {"molecular_target": "T3, Gsx2HD L231E (Mus musculus, UniProt P31316 203-264, L231E)", "T3 sequence (P31316 203-264 L231E)": "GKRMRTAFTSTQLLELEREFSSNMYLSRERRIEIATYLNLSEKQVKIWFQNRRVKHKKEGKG", "test": "EMSA"}, "Gsx2HD S212E [4]": {"molecular_target": "T4, Gsx2HD S212E (Mus musculus, UniProt P31316 203-264, S212E)", "T4 sequence (P31316 203-264 S212E)": "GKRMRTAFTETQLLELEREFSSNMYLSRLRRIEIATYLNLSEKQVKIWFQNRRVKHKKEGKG", "test": "EMSA"}, "Gsx2HD L216E [5]": {"molecular_target": "T2, Gsx2HD L216E", "test": "EMSA", "remark": "listed apart in the source"}, "Gsx2HD L231E [6]": {"molecular_target": "T3, Gsx2HD L231E", "test": "EMSA", "remark": "listed apart in the source"}, "Gsx2HD S212E [7]": {"molecular_target": "T4, Gsx2HD S212E", "test": "EMSA", "remark": "listed apart in the source"}, "Gsx2 167-305 [8]": {"molecular_target": "T1, Gsx2 167-305", "test": "EMSA"}, "Gsx2 167-305 [9]": {"molecular_target": "T1, Gsx2 167-305", "test": "EMSA", "remark": "listed apart in the source"}, "Gsx2HD I234E": {"molecular_target": "Gsx2HD I234E (Mus musculus, UniProt P31316 203-264, I234E)", "sequence (P31316 203-264 I234E)": "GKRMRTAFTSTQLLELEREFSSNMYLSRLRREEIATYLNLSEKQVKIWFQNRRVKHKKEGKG", "test": "ITC"}}, "note": "Like-named read-outs stand apart in the source and are kept apart here.", "data": [{"binder": "TAATGG (common Q50) monomer site 15mer (dsDNA) DNA 1: TGAGCTAATGGAAGC DNA 2: AGCTTCCATTAGCTC", "values": [{"measurement": "Kd", "setting": "Gsx2HD", "value": 36, "unit": "nM"}, {"measurement": "Kd", "setting": "Gsx2 167-305 [1]", "value": 143, "unit": "nM"}]}, {"binder": "7bpS dimer probe (= AAATT spacer probe) (dsDNA) DNA 1: TCCAACTAATTAAAATTTAATTCGTAGTGCGGGCGTGGCT DNA 2: CGAATTAAATTTTAATTAGTTGGA DNA 3: AGCCACGCCCGCACTA", "values": [{"measurement": "binding result", "setting": "Gsx2HD L216E [2]", "value": "binds"}, {"measurement": "binding result", "setting": "Gsx2HD L231E [3]", "value": "binds"}, {"measurement": "binding result", "setting": "Gsx2HD S212E [4]", "value": "binds"}]}, {"binder": "8bpS dimer probe (dsDNA) DNA 1: TCCAACTAATTAAAGATTTAATTCGTAGTGCGGGCGTGGCT DNA 2: CGAATTAAATCTTTAATTAGTTGGA DNA 3: AGCCACGCCCGCACTA", "values": [{"measurement": "binding result", "setting": "Gsx2HD L216E [5]", "value": "binds"}, {"measurement": "binding result", "setting": "Gsx2HD L231E [6]", "value": "binds"}, {"measurement": "binding result", "setting": "Gsx2HD S212E [7]", "value": "binds"}]}, {"binder": "AATTT spacer dimer probe (dsDNA) DNA 1: TCCAACTAATTAAATTTTAATTCGTAGTGCGGGCGTGGCT DNA 2: CGAATTAAAATTTAATTAGTTGGA DNA 3: AGCCACGCCCGCACTA", "values": [{"measurement": "binding result", "setting": "Gsx2 167-305 [8]", "value": "binds"}]}, {"binder": "ATATT spacer dimer probe (dsDNA) DNA 1: TCCAACTAATTAATATTTAATTCGTAGTGCGGGCGTGGCT DNA 2: CGAATTAAATATTAATTAGTTGGA DNA 3: AGCCACGCCCGCACTA", "values": [{"measurement": "binding result", "setting": "Gsx2 167-305 [8]", "value": "binds"}]}, {"binder": "GCGGG spacer dimer probe (dsDNA) DNA 1: TCCAACTAATTAGCGGGTAATTCGTAGTGCGGGCGTGGCT DNA 2: CGAATTACCCGCTAATTAGTTGGA DNA 3: AGCCACGCCCGCACTA", "values": [{"measurement": "binding result", "setting": "Gsx2 167-305 [9]", "value": "binds"}]}, {"binder": "GCCGG spacer dimer probe (dsDNA) DNA 1: TCCAACTAATTAGCCGGTAATTCGTAGTGCGGGCGTGGCT DNA 2: CGAATTACCGGCTAATTAGTTGGA DNA 3: AGCCACGCCCGCACTA", "values": [{"measurement": "binding result", "setting": "Gsx2 167-305 [9]", "value": "binds"}]}, {"binder": "GGGCC spacer dimer probe (dsDNA) DNA 1: TCCAACTAATTAGGGCCTAATTCGTAGTGCGGGCGTGGCT DNA 2: CGAATTAGGCCCTAATTAGTTGGA DNA 3: AGCCACGCCCGCACTA", "values": [{"measurement": "binding result", "setting": "Gsx2 167-305 [9]", "value": "binds"}]}, {"binder": "TAATTA consensus monomer site 15mer (dsDNA) DNA 1: TGAGCTAATTAAAGC DNA 2: AGCTTTAATTAGCTC", "values": [{"measurement": "Kd", "setting": "Gsx2HD I234E", "value": 20, "unit": "nM"}]}]}
